Test results: the supplement of paper PMC9112550, “Optimization of the antimicrobial peptide Bac7 by deep mutational scanning” (BMC Biology, 2022)

System: Escherichia coli TOP10
Test: shrunken log2 fold change of peptide-encoding DNA abundance (4.5 h post-induction vs induction); higher = less antimicrobial activity (less host growth inhibition)
Details: time post-induction: 4.5 h; library: site-saturation at positions 5, 18, 19, 20
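Also: peptides expressed intracellularly from a pBAD plasmid library in pooled LB shake-flask culture, induced with 0.3% L-arabinose, DNA abundance read by NGS, three biological replicates, DESeq2 with apeglm shrinkage.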

Sequence	shrunken log2 fold change
RRIRMRPPRLPRPRPRPTNWPRP	0.474
RRIRHRPPRLPRPRPRPQLGPRP	0.375
RRIRDRPPRLPRPRPRPTCTPRP	0.53
RRIRVRPPRLPRPRPRPTQGPRP	0.291
RRIRNRPPRLPRPRPRPVMIPRP	-0.311
RRIRMRPPRLPRPRPRPHFHPRP	-0.376
RRIRCRPPRLPRPRPRPDQGPRP	-0.143
RRIRARPPRLPRPRPRPGGIPRP	0.254
RRIRYRPPRLPRPRPRPNWFPRP	-0.892
RRIRFRPPRLPRPRPRPPRWPRP	0.659
RRIRVRPPRLPRPRPRPASAPRP	0.309
RRIRNRPPRLPRPRPRPQFWPRP	0.0339
RRIRCRPPRLPRPRPRPTFNPRP	-0.525
RRIRKRPPRLPRPRPRPPEWPRP	1.19
RRIRVRPPRLPRPRPRPCNLPRP	-0.163
RRIRMRPPRLPRPRPRPWSRPRP	0.163
RRIRDRPPRLPRPRPRPWYIPRP	-0.0219
RRIRFRPPRLPRPRPRPDRDPRP	-0.119
RRIRYRPPRLPRPRPRPEIYPRP	-0.279
RRIRNRPPRLPRPRPRPDSDPRP	-0.00992
RRIRFRPPRLPRPRPRPMSKPRP	-0.0951
RRIRIRPPRLPRPRPRPICVPRP	-0.181
RRIRVRPPRLPRPRPRPYIMPRP	-0.937

Sequence	shrunken log2 fold change
RRIRTRPPRLPRPRPRPEIPPRP	-0.104
RRIRERPPRLPRPRPRPVINPRP	-0.217
RRIRKRPPRLPRPRPRPQGAPRP	0.451
RRIRNRPPRLPRPRPRPHDWPRP	0.263
RRIRRRPPRLPRPRPRPYHDPRP	-0.266
RRIRPRPPRLPRPRPRPAGKPRP	-0.0291
RRIRARPPRLPRPRPRPEVWPRP	1.43
RRIRGRPPRLPRPRPRPNESPRP	0.302
RRIRHRPPRLPRPRPRPGYRPRP	-0.00177
RRIRLRPPRLPRPRPRPDYDPRP	-0.496
RRIRHRPPRLPRPRPRPKQEPRP	0.0169
RRIRMRPPRLPRPRPRPWVGPRP	0.171
RRIRIRPPRLPRPRPRPGGAPRP	0.288
RRIRCRPPRLPRPRPRPQMYPRP	-0.14
RRIRGRPPRLPRPRPRPLQDPRP	0.98
RRIRMRPPRLPRPRPRPPRFPRP	1.23
RRIRKRPPRLPRPRPRPARTPRP	0.476
RRIRTRPPRLPRPRPRPCYPPRP	-0.425
RRIRPRPPRLPRPRPRPWSRPRP	0.298
RRIRSRPPRLPRPRPRPNYVPRP	-0.906
RRIRLRPPRLPRPRPRPMRMPRP	-0.076
RRIRARPPRLPRPRPRPYCSPRP	0.0743
RRIRERPPRLPRPRPRPCHYPRP	-0.224

Sequence	shrunken log2 fold change
RRIRARPPRLPRPRPRPDEGPRP	0.37
RRIRERPPRLPRPRPRPRNTPRP	-0.346
RRIRPRPPRLPRPRPRPILAPRP	0.273
RRIRWRPPRLPRPRPRPHNMPRP	-0.623
RRIRCRPPRLPRPRPRPTCLPRP	0.00222
RRIRGRPPRLPRPRPRPTVDPRP	0.836
RRIRFRPPRLPRPRPRPPTCPRP	0.186
RRIRGRPPRLPRPRPRPYYIPRP	-0.233
RRIRPRPPRLPRPRPRPAECPRP	-0.223
RRIRIRPPRLPRPRPRPHNDPRP	-0.55
RRIRRRPPRLPRPRPRPIPWPRP	0.312
RRIRPRPPRLPRPRPRPKQPPRP	0.0475
RRIRMRPPRLPRPRPRPMFDPRP	-0.328
RRIRRRPPRLPRPRPRPNFQPRP	0.253
RRIRWRPPRLPRPRPRPYYPPRP	-1.09
RRIRYRPPRLPRPRPRPVLYPRP	-0.0955
RRIRHRPPRLPRPRPRPMHGPRP	-0.00804
RRIRMRPPRLPRPRPRPEERPRP	2.6
RRIRRRPPRLPRPRPRPNAPPRP	0.675
RRIRFRPPRLPRPRPRPSAWPRP	0.534
RRIRDRPPRLPRPRPRPDWSPRP	0.147
RRIRIRPPRLPRPRPRPNPFPRP	-0.502
RRIRERPPRLPRPRPRPQQYPRP	-0.318

Sequence	shrunken log2 fold change
RRIRARPPRLPRPRPRPLCDPRP	2.32
RRIRLRPPRLPRPRPRPIRGPRP	-0.0599
RRIRTRPPRLPRPRPRPANAPRP	-0.0933
RRIRMRPPRLPRPRPRPQTLPRP	0.0245
RRIRRRPPRLPRPRPRPHLLPRP	-0.0838
RRIRCRPPRLPRPRPRPVTIPRP	-0.461
RRIRDRPPRLPRPRPRPFIMPRP	-0.147
RRIRIRPPRLPRPRPRPHSLPRP	0.0644
RRIRERPPRLPRPRPRPEKVPRP	-0.0174
RRIRTRPPRLPRPRPRPIWAPRP	-0.085
RRIRTRPPRLPRPRPRPANLPRP	-0.0546
RRIRKRPPRLPRPRPRPGAKPRP	1.16
RRIRDRPPRLPRPRPRPHILPRP	0.0348
RRIRPRPPRLPRPRPRPLVIPRP	-0.509
RRIRLRPPRLPRPRPRPHMYPRP	-1.07
RRIRSRPPRLPRPRPRPPRCPRP	0.218
RRIRPRPPRLPRPRPRPQSRPRP	0.161
RRIRNRPPRLPRPRPRPYELPRP	-0.0122
RRIRTRPPRLPRPRPRPTGCPRP	-0.388
RRIRHRPPRLPRPRPRPSMTPRP	0.0628
RRIRFRPPRLPRPRPRPTCWPRP	0.0659
RRIRMRPPRLPRPRPRPFVVPRP	-0.254
